Like-named read-outs stand apart in the source and are kept apart here.
Tests used:
human CCR8 [1] = target: T1, human CCR8 (human, UniProt P51685 1-355); test: FACS binning, Jurkat-huCCR8, 200 nM each; row = unlabeled 1st Ab; competitor (APC labeled 2nd Ab): Ch211
human CCR8 [2] = target: T1, human CCR8; test: FACS binning, Jurkat-huCCR8, 200 nM each; row = unlabeled 1st Ab; competitor (APC labeled 2nd Ab): 433H
human CCR8 [3] = target: T1, human CCR8; test: FACS binning, Jurkat-huCCR8, 200 nM each; row = unlabeled 1st Ab; competitor (APC labeled 2nd Ab): Ch326
human CCR8 [4] = target: T1, human CCR8; test: FACS binning, Jurkat-huCCR8, 200 nM each; row = unlabeled 1st Ab; competitor (APC labeled 2nd Ab): Ch127
human CCR8 [5] = target: T1, human CCR8; test: FACS binning, Jurkat-huCCR8, 200 nM each; row = unlabeled 1st Ab; competitor (APC labeled 2nd Ab): Ch305
human CCR8 [6] = target: T1, human CCR8; test: FACS binning, Jurkat-huCCR8, 200 nM each; row = unlabeled 1st Ab; competitor (APC labeled 2nd Ab): Ch366-2
human CCR8 [7] = target: T1, human CCR8; test: FACS binning, Jurkat-huCCR8, 200 nM each; row = unlabeled 1st Ab; competitor (APC labeled 2nd Ab): 4A19
[8] = target: human CCR8 N-terminal domain-mouse Fc tag fusion protein (human (CCR8 part), mouse IgG2a Fc); test: ELISA, plate coated with human CCR8 N-terminal domain-Fc fusion
[9] = target: T2, human CCR8 N-terminal domain-mouse Fc tag fusion protein (human (CCR8 part), mouse IgG2a Fc); test: as above
T2 construct: also called huCCR8-N-mIgG2a; human CCR8 N-terminal protein
T2 chain: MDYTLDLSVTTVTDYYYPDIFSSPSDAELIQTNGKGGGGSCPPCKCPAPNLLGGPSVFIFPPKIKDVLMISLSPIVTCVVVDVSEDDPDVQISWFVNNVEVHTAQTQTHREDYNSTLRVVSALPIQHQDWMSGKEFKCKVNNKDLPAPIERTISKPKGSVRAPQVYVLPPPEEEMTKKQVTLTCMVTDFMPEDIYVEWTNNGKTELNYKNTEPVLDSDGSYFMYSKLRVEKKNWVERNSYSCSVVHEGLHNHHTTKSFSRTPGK
Description: To determine whether anti-CCR8 antibodies bind to the N-terminal domain of human CCR8, ELISA plates were coated with human CCR8 N-terminal domain-mouse Fc tag fusion protein (SEQ ID NO: 28 and 29) overnight at 4° C. After washing and blocking, serially diluted anti-CCR8 antibodies were added to plates and incubated for 1 hour at room temperature. After washing, diluted HRP goat anti-human IgG Fc or HRP goat anti-mouse kappa chain (for 433H) secondary antibodies were added to plates and incubated for 45 minutes at room temperature. After washing, TMB substrate was added to plates for developing and then stopped by adding TMB substrate stop solution. The absorbance was read at 450 nm using a plate reader. […] It is a non CCR8 N-terminal loop binder.

huCCR8 E177A [10] = target: T3, huCCR8 E177A (human, UniProt P51685 1-355); test: flow cytometry, transfected Expi293 cells, antibody at 50, 10 and 1 nM
T3 construct: Point mutant on transfected Expi293 cells
Description: (§1) To more precisely determine the specific amino acid residues that are crucial for antibody binding to human CCR8, point mutations were introduced to ECL2, ECL3 and N-terminal regions of human CCR8, as shown in the first column of Table 19. To evaluate the impact of each mutant, humanized anti-CCR8 antibody hu305-5W-3a was used to react with transfected Expi293 cells as described above with the concentration of 50 nM, 10 nM and 1 nM (results summarized in Table 19). The critical amino acids for hu305-5W-3a binding are marked with an “X” indicating a loss of >50% compared with wild type huCCR8, which is considered significant.

huCCR8 D26A [11] = target: T4, huCCR8 D26A (human, UniProt P51685 1-355); test: as above
T4 construct: Point mutant on transfected Expi293 cells
Description: as §1

huCCR8 Y172A [12] = target: T5, huCCR8 Y172A (human, UniProt P51685 1-355); test: as above
T5 construct: Point mutant on transfected Expi293 cells
Description: as §1

huCCR8 L269A [13] = target: T6, huCCR8 L269A (human, UniProt P51685 1-355); test: as above
T6 construct: Point mutant on transfected Expi293 cells
Description: as §1

huCCR8 D178A [14] = target: T7, huCCR8 D178A (human, UniProt P51685 1-355); test: as above
T7 construct: Point mutant on transfected Expi293 cells
Description: as §1

huCCR8 M266A [15] = target: T8, huCCR8 M266A (human, UniProt P51685 1-355); test: as above
T8 construct: Point mutant on transfected Expi293 cells
Description: as §1

huCCR8 E177A [16] = target: T3, huCCR8 E177A; test: flow cytometry, transfected Expi293 cells, serial dilution from 200 nM
Description: (§2) In comparison, the 10A11 reference antibody recognizes D14, Y17, D19 on the N-terminal domain of huCCR8 as the mutation on these sites totally abolished the binding, indicating no overlap in epitope between the reference antibody 10A11 and hu305-5W-3a. To further confirm the critical roles of these sites for binding, the transfected Expi293 cells were stained with a serial dilution of hu305-5W-3a from 200 nM followed by detection with Alexa Fluor 647 Rabbit Anti-Human IgG (Cat.: 309-605-008 Jackson ImmunoResearch) to obtain a full binding curve. […] D178 and M266 are considered as 2nd tier epitopes having media impact on Hu305-5W-3a binding. Substitution them with Ala will lead to ˜3 folds decrease of EC50.

human CCR8 [17] = target: T1, human CCR8; test: as above
Description: as §2

huCCR8 D26A [18] = target: T4, huCCR8 D26A; test: as above
Description: as §2

huCCR8 Y172A [19] = target: T5, huCCR8 Y172A; test: as above
Description: as §2

huCCR8 L269A [20] = target: T6, huCCR8 L269A; test: as above
Description: as §2

huCCR8 D178A [21] = target: T7, huCCR8 D178A; test: as above
Description: as §2

huCCR8 M266A [22] = target: T8, huCCR8 M266A; test: as above
Description: as §2

B1: 433H (antibody, from another filing, V domains shown)
VH: EVQLVETGGGLVQPKGSLRLSCAASGFPFNTFAMNWVRQAPGKGLEWLARIRSKSNNYATYYADSVKDRFTISRDDSRRMLYLLMNNVKFEDTAIYYCVRGKENNYGYAMDYWGQGTSVTVSS
VL: DIVMTQAAPSVPVTPGESVSISCRSSQSLLHSNGNTYLYWFLQRPGQSPQLLIYRMSNLASGVPDRFSGSGSGTAFTLRISRVEAEDVGVYYCMQHLEYPFTFGIGTKLELKR
- % of the maximum binding of the APC labeled antibody (human CCR8 [1]): 39.9%
- % of the maximum binding of the APC labeled antibody (human CCR8 [2]): 3.03%
- % of the maximum binding of the APC labeled antibody (human CCR8 [3]): 1.87%
- % of the maximum binding of the APC labeled antibody (human CCR8 [4]): 2.55%
- % of the maximum binding of the APC labeled antibody (human CCR8 [5]): 28.9%
- % of the maximum binding of the APC labeled antibody (human CCR8 [6]): 14.2%
- % of the maximum binding of the APC labeled antibody (human CCR8 [7]): 8.43%
- EC50 [8]: 0.94 nM

B2: 4A19 (antibody, V domains shown)
VH: QVQLVQSGAEVKKPGASVKVSCKASGYTFTDSEMHWVRQATGQGLEWMGAIQPETGGTAYNQKFKARVTMTRDTSISTAYMELSSLRSEDTAVYYCARRRRNFDYWGQGTLVTVSS
VL: DIVMTQTPLSLSVTPGQPASISCRSSQSLFHSSGNTYLHWYLQKPGQPPQLLIYKVSNRFSGVPDRFSGSGSGTDFTLKISRVEAEDVGVYYCSQSTHVPFTFGQGTKLEIKR
- EC50 [9]: 0.11 nM

B3: hu305-5W-3a (antibody, V domains shown)
VH: QVQLKQSGPGLVKPSETLSLTCTVSGFSLAVYGVHWVRQPPGKGLEWLGVIWRGGTTDYNPSLKSRLTFSKDSSKSQVSLKLSSVTAADTAVYYCAKNRVTTVVAPNFYAMDYWGQGTLVTVSS
VL: DIVMTQSPDSLAVSLGERATINCKSSQSLLYSGNQKNYLAWYQQKPGQPPKLLIYWASTRKSGVPDRFSGSGSGTDFTLTISSLKAEDVAVYYCQQYYTYPLTFGQGTRLEIK
- loss of binding compared with wild type huCCR8 (huCCR8 E177A [10]): > 50%
- loss of binding compared with wild type huCCR8 (huCCR8 D26A [11]): > 50%
- loss of binding compared with wild type huCCR8 (huCCR8 Y172A [12]): > 50%
- loss of binding compared with wild type huCCR8 (huCCR8 L269A [13]): > 50%
- loss of binding compared with wild type huCCR8 (huCCR8 D178A [14]): > 50%
- loss of binding compared with wild type huCCR8 (huCCR8 M266A [15]): > 50%
- EC50 (huCCR8 E177A [16]): 25.4 nM
- fold change of EC50 against wild type huCCR8 (huCCR8 E177A [16]): > 4 fold
- EC50 (human CCR8 [17]): 6.3 nM
- EC50 (huCCR8 D26A [18]): 16.8 nM
- fold change of EC50 against wild type huCCR8 (huCCR8 D26A [18]): > 2 fold
- EC50 (huCCR8 Y172A [19]): 26.3 nM
- fold change of EC50 against wild type huCCR8 (huCCR8 Y172A [19]): > 4 fold
- EC50 (huCCR8 L269A [20]): 27.4 nM
- fold change of EC50 against wild type huCCR8 (huCCR8 L269A [20]): > 4 fold
- EC50 (huCCR8 D178A [21]): 18.3 nM
- fold change of EC50 against wild type huCCR8 (huCCR8 D178A [21]): ~3 fold
- EC50 (huCCR8 M266A [22]): 19.4 nM
- fold change of EC50 against wild type huCCR8 (huCCR8 M266A [22]): ~3 fold

Source: US20250115671A1 (BEIGENE, published 2025)
